Experimental data reported in patent publication US5856135, “Reshaped human antibody to human interleukin-6” (Chugai Seiyaku Kabushiki Kaisha, dated 1999).

Experiments:
recombinant human IL-6 [1] = molecular target: T1, recombinant human IL-6 (human, UniProt P05231); assay: antigen-binding ELISA (FIG. 9)
Method: (§1) An ELISA plate for antigen-binding assay was prepared as follows. A 96-well plate was coated with mouse monoclonal antibody MH166 recognizing a different epitope of human IL-6 from that recognized by SK2 (Matsuda, T. et al., Eur. J. Immunol. 18, 951–956, 1988), and after blocking, recombinant human IL-6 was added thereto. A sample of the chimeric SK2 antibody was sequentially diluted, added to each well, and then an alkaline phosphatase-conjugated goat anti-human IgG antibody (Sigma) was added thereto. After incubation and washing, substrate was added, and absorbance at 405 nm was measured.

biotinylated IL-6 [2] = molecular target: T2, biotinylated IL-6 (human, UniProt P05231, biotinylated (site not stated)); assay: binding-inhibition ELISA, IL-6 to IL-6R (FIG. 10)
Method: (§2) For binding-inhibition assay, an ELISA plate was prepared as follows. A 96-well plate was coated with mouse monoclonal antibody, MT-18 (Hirata, Y. et al., J. Immunol., 143, 2900–2907, 1989), specific to human IL-6 receptor (IL-6R), and, after blocking, soluble recombinant human IL-6R (SR344) (Yasukawa, K. et al., J. Biochem. 108, 673–676, 1990) was added thereto. A sample of this chimeric SK2 antibody was sequentially diluted, and added with biotinylated IL-6 to each well, and after adding an alkaline phosphatase-conjugated streptavidin thereto, absorbance at 405 nm was measured.

biotinylated IL-6 [3] = molecular target: T2, biotinylated IL-6; assay: binding-inhibition ELISA, IL-6 to IL-6R (FIG. 10), reference
Method: as §2

recombinant human IL-6 [4] = molecular target: T1, recombinant human IL-6; assay: ELISA, told in the description of the chimeric antibody
Method: as §1

recombinant human IL-6 [5] = molecular target: T1, recombinant human IL-6; assay: antigen-binding ELISA (FIG. 8)
Method: as §1

binding result (recombinant human IL-6 [1])	binding result (biotinylated IL-6 [2])	Binder	also measured
binds	binds	reshaped human SK2 antibody, L chain version "a" and H chain version "a" (antibody, V domains shown) VH: QVTLRESGPALVRPTQTLTLTCTFSGFSLSTSGMTVGWIRQPPGEALEWLAHIWWNDDKYYNPALKGRLAVSKDTSKNQVVLSMNTVGPGDTATYYCARMEDYDEAMDYWGQGILVTVSS VL: DIQMTQSPSSLSASVGDRVTITCRASENIYSNLAWYQQKPGKAPKLLIYAATYLADGVPSRFSGSGSGTDFTFTISSLQPEDIATYYCQHFWGTPPFGQGTKVEIK	–
binds	binds	reshaped human SK2 antibody, L chain version "b" and H chain version "a" (antibody, V domains shown) VH: QVTLRESGPALVRPTQTLTLTCTFSGFSLSTSGMTVGWIRQPPGEALEWLAHIWWNDDKYYNPALKGRLAVSKDTSKNQVVLSMNTVGPGDTATYYCARMEDYDEAMDYWGQGILVTVSS VL: DIQMTQSPSSLSASVGDRVTITCRASENIYSNLAWYQQKPGKAPKLLIYAATYLADGVPSRFSGSGSGTDYTFTISSLQPEDIATYYCQHFWGTPPFGQGTKVEIK	–
binds	binds	reshaped human SK2 antibody, L chain version "a" and H chain version "b" (antibody, V domains shown) VH: QVTLRESGPALVRPTQTLTLTCTFSGFSLNTSGMTVGWIRQPPGEALEWLAHIWWNDDKYYNPALKGRLAVSKDTSKNQVVLSMNTVGPGDTATYYCARMEDYDEAMDYWGQGILVTVSS VL: DIQMTQSPSSLSASVGDRVTITCRASENIYSNLAWYQQKPGKAPKLLIYAATYLADGVPSRFSGSGSGTDFTFTISSLQPEDIATYYCQHFWGTPPFGQGTKVEIK	–
binds	–	reshaped human SK2 antibody, L chain version "b" and H chain version "b" (antibody, V domains shown) VH: QVTLRESGPALVRPTQTLTLTCTFSGFSLNTSGMTVGWIRQPPGEALEWLAHIWWNDDKYYNPALKGRLAVSKDTSKNQVVLSMNTVGPGDTATYYCARMEDYDEAMDYWGQGILVTVSS VL: DIQMTQSPSSLSASVGDRVTITCRASENIYSNLAWYQQKPGKAPKLLIYAATYLADGVPSRFSGSGSGTDYTFTISSLQPEDIATYYCQHFWGTPPFGQGTKVEIK	–
–	–	chimeric SK2 antibody (antibody, V domains shown) VH: QVTLKESGPGILQPSQTLSLTCSFSGFSLNTSGMTVGWIRQPSGKGLEWLAHIWWNDDKYYNPALKGRLTISKDTSNNQVFLKIASVVTADTATYYCARMEDYDEAMDYWGQGTSVTVSS VL: DIQMTQSPASLSVSVGETVTITCRASENIYSNLAWYQQKQGKSPQLLVYAATYLADGVPSRFSGSGSGTQYSLKINSLQSEDFGSYYCQHFWGTPPFGSGTKLEIK	binding result (biotinylated IL-6 [3]): binds; binding result (recombinant human IL-6 [4]): binds
–	–	antibody comprising reshaped L chain version "a" and chimeric H chain (antibody, V domains shown) VH: QVTLKESGPGILQPSQTLSLTCSFSGFSLNTSGMTVGWIRQPSGKGLEWLAHIWWNDDKYYNPALKGRLTISKDTSNNQVFLKIASVVTADTATYYCARMEDYDEAMDYWGQGTSVTVSS VL: DIQMTQSPSSLSASVGDRVTITCRASENIYSNLAWYQQKPGKAPKLLIYAATYLADGVPSRFSGSGSGTDFTFTISSLQPEDIATYYCQHFWGTPPFGQGTKVEIK	binding result (recombinant human IL-6 [5]): binds
–	–	antibody comprising reshaped L chain version "b" and chimeric H chain (antibody, V domains shown) VH: QVTLKESGPGILQPSQTLSLTCSFSGFSLNTSGMTVGWIRQPSGKGLEWLAHIWWNDDKYYNPALKGRLTISKDTSNNQVFLKIASVVTADTATYYCARMEDYDEAMDYWGQGTSVTVSS VL: DIQMTQSPSSLSASVGDRVTITCRASENIYSNLAWYQQKPGKAPKLLIYAATYLADGVPSRFSGSGSGTDYTFTISSLQPEDIATYYCQHFWGTPPFGQGTKVEIK	binding result (recombinant human IL-6 [5]): binds
